Positions count from the first letter of the chain named.

Data on 13 molecules can be found in patent US10253086B2, “CD20 therapies, CD22 therapies, and combination therapies with a CD19 chimeric antigen receptor (CAR)-expressing cell” (Novartis AG, priority 2015, dated 2019).

The subject of test [1] is Raji, SEM, K562-hCD22, Daudi, and Nalm6. The experiment in a line: Primary T-cell tumor target killing assay. The note with it: CD22 expressing luciferase target cell lines. The test is classed as cell-based, human. The text has this: Primary T-cells activated and transduced as described above were mixed with target cell lines stably expressing luciferase at the ratios indicated (FIG. 20A-20F). […] Untransduced T-cells (UTD) lacked the ability to kill target cell lines.

Test [2] concerns the target recombinant human CD22-Fc (Homo sapiens, UniProt P20273). The experiment in a line: Surface expression of CD22 CAR in primary human T-cells (Protein-L, rhCD22-Fc). The test is classed as cell-based. The note with it: day 10, flow cytometry. As to the method:
Primary human T-cells were activated with anti-CD3/antiCD28 stimulatory beads on day 0, followed by lentiviral transduction of specified CAR constructs on day 1. Cells were expanded in vitro until day, 10 at which point they were analyzed by flow cytometry for surface expression of CAR. Two different approaches were utilized to determine surface expression of CAR: Protein-L-biotin followed by streptavidin-PE, and recombinant human CD22-Fc followed by anti-Fc-alexafluor 488. […] CD22 CAR m971 served as a positive control for binding both Protein-L and hrCD22-Fc, and Isotype CAR with no specificity (anti-gH) served as a positive control for Protein-L. T cells expressing no CAR were used as a negative control.
A general note: In flow cytometry, cells or beads pass a laser one at a time.

Test [3] concerns CD22. The experiment in a line: NFAT assay of CD22 CAR in JNL cells on antigen-coated plates. The test is classed as cell-based, human. To be noted: for function in NFAT assay: plates coated with CD22-FL-Fc, CD22-D567-Fc, CD22-D67. As to the method:
Several CD22 CAR constructs were functionally validated in an NFAT assay. Briefly the experiments were performed as follows. A lentiviral vector (pELPS) carrying a nucleic acid, encoding a CD22 CAR with a CD22-binding scFv domain was introduced by electroporation into a Jurkat T cell line modified to express luciferase under the control of an NFAT response element (JNL). The cells were cultured and allowed to express the CAR construct. The electroporated cells were applied to a plate coated with the target antigen (CD22). Detection of luciferase signal in the coated plate was indicative of binding activity of the CD22 CAR to its antigen, leading to activation of the T cells and expression of luciferase.
The results also indicate that the different scFvs compete with m971 to different extents.
FIG. 72 is a graph showing the activation (in RLU) of several CD22 CAR-expressing JNL cells including CD22-57, CD22-58, CD22-59, CD22-60, CD22-61, CD22-62, and CD22-63, the scFv sequences of which are provided herein. Three different target proteins (CD22-FL-Fc, CD22-D567-Fc, and CD22-D67) were used to coat the tissue culture plates; a negative control (Fc) was also included. A mesothelin binding CAR (Meso-G07) was used as a negative control. CD22-12 and CD22-53 were used as positive controls. […] Domain mapping was performed on CD22 binding domains. Three different forms of antigens were used: CD22 full-length with all 7 external domains, Domain567 (in which domains 1-4 were deleted) and Domain67 (in which domains 1-5 were deleted). While not wishing to be bound by theory, it appears that the binding of various CD22 clones maps to the epitopes illustrated in FIG. 75.
Two scFvs, named CD22-64 and CD22-65, were produced by affinity maturation of hCD22-12. CAR constructs containing these scFvs were tested for activity in an NFAT assay as described above. […] The bars in the figure represent, from left to right, CD22 full length-Fc; CD22 D567-Fc; and an Fc only negative control used for coating of the plates.

The subject of test [4] is Raji-Luc and Daudi-Luc. Put plainly: IFN-gamma and IL-2 secretion by CD22 CAR primary T cells. It counts as cell-based, human. The note with it: E:T 10 to 1, 20-hr co-culture. As to the method:
CD22 CAR constructs were also tested for the ability to promote secretion of IFN-gamma and IL-2. Briefly, transduced primary T cells from healthy donors expressing the different CD22 CARs were co-cultured with the CD22-positive target cells Raji-Luc and Daudi-Luc as well as the negative control K562-Luc. T cells and target cell were cultured in an effector-to-target cell ratio (E:T) of 10 to 1. Supernatants were harvested after 20-hr co-culture. […] Similar results were observed when Nalm6-Luc, Pfeiffer-Luc, and K562-CD22-Luc, and SEM-Luc cells were tested (data not shown). Minimal IFN-gamma secretion was observed when the K562-Luc negative control cell line was tested (bottom panel).

B1: hCD22-31: human CD22 CAR (protein)
scFv: QVQLVQSGAEVKKPGASVKVSCKASGYTFTSYDINWVRQATGQGLEWMGWMNPNSGNTGYAQKFQGRVTMTRNTSISTAYMELSSLRSEDTAVYYCARGDSNYWSYYGMDVWGQGTLVTVSSGGGGSGGGGSGGGGSGGGGSQSVLTQPRSVSGSPGQSVTISCTGTSSDVGGYNYVSWYQQHPGEAPKLIIYDADKRPSGISNRFSSGKSGNTASLTISGLQVEDEADYYCCSYAGGSTWVFGGGTKVTVL
Turning to B1, the target cell killing entry in test [1] was “dose-dependent target cell killing”. Moreover, the “surface expression of CAR” value in test [2] is listed as “positive surface expression”.

B2: CD22-53: human CD22 CAR, scFv SEQ ID NO 131 (protein)
scFv: EVQLQQSGPGLVKPSQTLSLTCAISGDSVSSNSAAWNWIRQSPSRGLEWLGRTYYRSKWYSDYAVSVKSRITINPDTSKNQFSLQLNSVTPEDTAVYYCARDPYDFWSGYPDAFDIWGQGTMVTVSSGGGGSGGGGSGGGGSQSALTQPASVSGSPGQSITISCTGTSSDVGGYNYVSWYQQHPGKAPKVIISEVNNRPSGVSHRFSGSKSGNTASLTISGLQAEDEADYFCSSYTSGRTLYVFGTGSKVTVLG
With B2, the “antigen binding / activation (RLU) vs m971” value in test [3] (with and without m971 scFv competitor) is listed as “bind the antigen approximately as well as the m971 positive control”. Moreover, in test [4], the IFN-gamma secretion entry is “induced IFN-gamma secretion” and the “relative amount of IFN-gamma” value is recorded as “highest amounts”.

B3: m971-HL: CD22 (m971-derived) CAR construct that served as positive control (antibody, V domains shown)
VH: QVQLQQSGPGLVKPSQTLSLTCAISGDSVSSNSAAWNWIRQSPSRGLEWLGRTYYRSKWYNDYAVSVKSRITINPDTSKNQFSLQLNSVTPEDTAVYYCAREVTGDLEDAFDIWGQGTMVTV
VL: DIQMTQSPSSLSASVGDRVTITCRASQTIWSYLNWYQQRPGKAPNLLIYAASSLQSGVPSRFSGRGSGTDFTLTISSLQAEDFATYYCQQSYSIPQTFGQGTKLEIK
For B3, the target cell killing result in test [1] was “dose-dependent target cell killing”. Besides, the IFN-gamma secretion result in test [4] is “induced IFN-gamma secretion”.

B4: CD22-57: human CD22 scFv SEQ ID NO 132 (protein, listed as Homo sapiens)
scFv: EVQLQQSGPGLVKPSQTLSLTCAISGDSVSNNNAAWNWIRQSPSRGLEWLGRTYHRSTWYNDYVGSVKSRITINPDTSKNQFSLQLNSVTPEDTAVYYCARETDYGDYGAFDIWGQGTTVTVSSGGGGSGGGGSGGGGSQSALTQPASVSGSPGQSITISCTGSRNDIGAYESVSWYQQHPGNAPKLIIHGVNNRPSGVFDRFSVSQSGNTASLTISGLQAEDEADYYCSSHTTTSTLYVFGTGTKVTVLG
For B4, the “function in NFAT assay” value in test [3] is “functional”.

B5: hCD22-10: human CD22 CAR (protein)
scFv: EVQLQQSGPGLVKPSQTLSLTCAISGDSVLSNSDTWNWIRQSPSRGLEWLGRTYHRSTWYDDYASSVRGRVSINVDTSKNQYSLQLNAVTPEDTGVYYCARDRLQDGNSWSDAFDVWGQGTMVTVSSGGGGSGGGGSGGGGSQSALTQPASVSGSPGQSITISCTGTSSDVGGYNYVSWYQQHPGKAPKLMIYDVSNRPSGVSNRFSGSKSGNTASLTISGLQAEDEADYYCSSYTSSSTLVYVFGTGTKVTVL
As to B5, the target cell killing entry in test [1] was “dose-dependent target cell killing”. For the same molecule, in test [2], the “surface expression of CAR” value is “positive surface expression”.

B6: CD22-60: human CD22 scFv SEQ ID NO 135 (protein, listed as Homo sapiens)
scFv: EVQLQQSGPGLVKPSQTLSLTCAISGDSVLSNSDTWNWIRQSPSRGLEWLGRTYHRSTWYDDYASSVRGRVSINVDTSKNQYSLQLNAVTPEDTGVYYCARDRLQDGNSWSDAFDVWGQGTMVTVSSGGGGSGGGGSGSGGSQSALTQPASVSGSPGQSITFSCTGTSSDIGGYNYVSWYQQHPGKAPKLMIYEVSNRPSGVSNRFSGTKSGNTASLTISGLQAEDEADYYCSSYTSSSTLYVFGTGTKLTVLG
Turning to B6, the “function in NFAT assay” value in test [3] is on record as “functional”.

B7: CD22-62: human CD22 scFv SEQ ID NO 137 (protein, listed as Homo sapiens)
scFv: B6 scFv with S139G, F162I, I171V, E194D, T209S, L250V
With B7, in test [3], the “function in NFAT assay” value is on record as “functional”.

B8: CD22-63: human CD22 scFv SEQ ID NO 138 (protein, listed as Homo sapiens)
scFv: B6 scFv with S139G, F162I, I171V, T209S, V243I, L250V
For B8, in test [3], the “function in NFAT assay” value is “functional”.

B9: CD22-61: human CD22 scFv SEQ ID NO 136 (protein, listed as Homo sapiens)
scFv: B6 scFv with E1Q, Q6E, F162I, I171V, T209S, L250V
B9: in test [3], the “function in NFAT assay” value is on record as “functional”.

B10: CD22-59: human CD22 scFv SEQ ID NO 134 (protein, listed as Homo sapiens)
scFv: EVQLQQSGPGLVKPSQTLSLTCAISGDSVLSNSDTWNWIRQSPSRGLEWLGRTYHRSTWYDDYASSVRGRVSINVDTSKNQYSLQLNAVTPEDTGVYYCARDRLQDGNSWSDAFDVWGQGTMVTVSSGGGGSGGGGSGGGGSQSALTQPASVSGSPGQSITISCTGSSSDIGGFNYVSWYQQHAGEAPKLMIYEVTNRPSGVSDRFSGSKSDNTASLTISGLQAEDEADYYCSSYASGSPLYVFGTGTKVTVLG
With B10, the “function in NFAT assay” value in test [3] is listed as “functional”.

B11: CD22-58: human CD22 scFv SEQ ID NO 133 (protein, listed as Homo sapiens)
scFv: EVQLQQSGPGLVNPSQTLSITCAISGDSVSSNSAAWNWIRQSPSRGLEWLGRTFYRSKWYNDYAVSVKGRITISPDTSKNQFSLQLNSVTPEDTAVYYCAGGDYYYGLDVWGQGTTVTVSSGGGGSGGGGSGGGGSQSALTQPASVSGSPGQSITISCTGSSSDVGGYNSVSWYQQHPGKAPKLMIYEVINRPSGVSHRFSGSKSGNTASLTISGLQAEDEADYYCSSYTSSSTYVFGTGTKVTVLG
As to B11, the “function in NFAT assay” value in test [3] is given as “functional”.

B12: hCD22-2: human CD22 CAR (protein)
scFv: EVQLQQSGPGLVKPSQTLSLTCAISGDSVSSNSAAWNWIRQSPSRGLEWLGRTYYRSKWYNDYAVSVKSRITINPDTSKNQFSLQLNSVTPEDTAVYYCARDLGWIAVAGTFDYWGQGTLVTVSSGGGGSGGGGSGGGGSQSALTQPASVSGSPGQSITISCTGTSSDVGGYNYVSWYQQHPGKAPKLMIYDVSKRPSGVSNRFSGSKSGNTASLTISGLQAEDEADYYCSSYTSSSLNHVFGTGTKVTVL
As to B12, the target cell killing result in test [1] is recorded as “dose-dependent target cell killing”. The “surface expression of CAR” value in test [2] was “positive surface expression”.

B13: hCD22-5: human CD22 CAR (protein)
scFv: EVQLVESGGGLVQPGRSLRLSCAASGFTFDDYAMHWVRQAPGKGLEWVSGISWNSGSIGYADSVKGRFTISRDNAKNSLYLQMNSLRAEDTALYYCAKDKGGGYYDFWSGSDYWGQGTLVTVSSGGGGSGGGGSGGGGSSSELTQDPAVSVALGQTVRITCQGDSLRSYYASWYQQKPGQAPVLVIYGKNNRPSGIPDRFSGSSSGNTASLTITGAQAEDEADYYCNSRDSSGWVFGGGTKLTVL
Take B13: the target cell killing entry in test [1] is “dose-dependent target cell killing”. The “surface expression of CAR” value in test [2] was “positive surface expression”.
